Results on 2 molecules are retold here after patent US20220135656A1 (NIMA ACQUISITION, published 2022).

One assay has as its target T1, peptide 43 (QQQQQQQQQQ).
T1 peptide: Biotin-QQQQQQQQQQ
The experiment in a line: peptide ELISA, biotinylated peptide captured on streptavidin. A general note: ELISA stands for enzyme-linked immunosorbent assay.

Assay [1] addresses T2, PWG-gliadin (wheat).
T2 construct: also called Gluten; glutenin
Description: SPR (Biacore T200), gliadin amine-coupled, antibody as analyte; 'as shown in the examples'. For orientation: In SPR one partner is held on a chip, and binding of the other changes the refractive index at the surface.

Assay [2] concerns the target T3, peptide PQQPYPQPQP (SEQ ID NO: 50).
T3 construct: Crude 10-mer of the peptide library from antigen 1/2/3; also called group A peptide
T3 peptide: Biotin-PQQPYPQPQP
The experiment in a line: peptide ELISA; biotinylated crude peptide on streptavidin, mAb 0.5 µg/ml; value given for group A.

Assay [3] has as its target T4, peptide PQPQLPYPQP (SEQ ID NO: 51).
T4 construct: Crude 10-mer of the peptide library; also called group A peptide
T4 peptide: Biotin-PQPQLPYPQP
The description is as above.

Assay [4] deals with T5, peptide QLPYPQPQLP (SEQ ID NO: 52).
T5 construct: Crude 10-mer of the peptide library; also called group A peptide
T5 peptide: Biotin-QLPYPQPQLP
The description is as above.

Assay [5] addresses T6, peptide PQLPYPQPQP (SEQ ID NO: 53).
T6 construct: Crude 10-mer of the peptide library; also called group A peptide
T6 peptide: Biotin-PQLPYPQPQP
The description is as above.

Assay [6] concerns the target T7, peptide PPQQPYPQPQ (SEQ ID NO: 54).
T7 construct: Crude 10-mer of the peptide library; also called group A peptide
T7 peptide: Biotin-PPQQPYPQPQ
The assay is described as above.

The target of assay [7] is T8, peptide SPQQPYPQPQ (SEQ ID NO: 55).
T8 construct: Crude 10-mer of the peptide library; also called group A peptide
T8 peptide: Biotin-SPQQPYPQPQ
Described as above.

Assay [8] deals with T9, peptide QPQLPYPQPQ (SEQ ID NO: 56).
T9 construct: Crude 10-mer of the peptide library; also called group A peptide
T9 peptide: Biotin-QPQLPYPQPQ
The description is as above.

For assay [9], the target named is T10, peptide PQLPYPQPQL (SEQ ID NO: 57).
T10 construct: Crude 10-mer of the peptide library; also called group A peptide
T10 peptide: Biotin-PQLPYPQPQL
Described as above.

The target of assay [10] is T11, peptide PQQPYPQSQP (SEQ ID NO: 58).
T11 construct: Crude 10-mer of the peptide library; also called group A peptide
T11 peptide: Biotin-PQQPYPQSQP
The description is as above.

Assay [11] addresses T12, peptide PPQLPYPQPP (SEQ ID NO: 59).
T12 construct: Crude 10-mer of the peptide library; also called group A peptide
T12 peptide: Biotin-PPQLPYPQPP
The description is as above.

In assay [12] the target is T13, peptide PFPPQQPYPQ (SEQ ID NO: 60).
T13 construct: Crude 10-mer of the peptide library; also called group B peptide
T13 peptide: Biotin-PFPPQQPYPQ
The experiment in a line: peptide ELISA; biotinylated crude peptide on streptavidin, mAb 0.5 µg/ml; value given for group B.

In assay [13] the target is T14, peptide YPQPQLPYPQ (SEQ ID NO: 61).
T14 construct: Crude 10-mer of the peptide library; also called group B peptide
T14 peptide: Biotin-YPQPQLPYPQ
Described as above.

Assay [14] deals with T15, peptide PFRPQQPYPQ (SEQ ID NO: 62).
T15 construct: Crude 10-mer of the peptide library; also called group B peptide
T15 peptide: Biotin-PFRPQQPYPQ
The assay is described as above.

The target of assay [15] is T2, PWG-gliadin. The experiment in a line: SPR, Biacore T200; Glutenin amine-coupled to the chip, antibody as analyte 3-243 nM; 1:1 binding fit; Chi2 16 RU2, U-value 2. How it is done: (§1) In this experiment, glutenin protein was coated through amine coupling method, the antibodies were flowed over the sensor chip as analytes. The experiment was carried out using the following protocol.
(§2) Coat glutenin onto the Series S Sensor Chip CM5 via primary amine groups using the following conditions: [0123] (1) Equilibrate: HBS-EP, flow rate 10 μl/min, 5 min; [0124] […] (3) Couple ligand: inject glutenin (15 μg/ml, 10 mM sodium acetate, pH 4.5), flow rate 10 μl/min, until ˜300 RU of glutenin is coated; [0126] (4) Deactivate excess reactive groups: inject ethanolamine, flow rate 10 μl/min, 7 min.
(§3) In this study, the binding affinities between glutenin and three monoclonal antibodies were determined. The experiment was carried out where glutenin was amine coupled to the sensor chip and antibodies were used as analytes. The result of is with good curve fitting and low U-values, and thus is reliable.

Assay [16] addresses T13, peptide PFPPQQPYPQ (SEQ ID NO: 60). The experiment in a line: peptide ELISA; group B; the number is missing in the cell.
In assay [17] the target is T14, peptide YPQPQLPYPQ (SEQ ID NO: 61). The description is as above.
In assay [18] the target is T15, peptide PFRPQQPYPQ (SEQ ID NO: 62). The assay is described as above.
In assay [19] the target is T2, PWG-gliadin. The experiment in a line: SPR, Biacore T200; Glutenin amine-coupled to the chip, antibody as analyte 3-243 nM; 1:1 binding fit; Chi2 29.9 RU2, U-value 2. How it is done: as §1, §2, §3

By Kd is commonly meant a measure of binding affinity in units of concentration. The low end stands for higher affinity, the high end for lower affinity. As a reminder, the koff is the first-order rate constant of dissociation. High values mean fast dissociation, low ones slow dissociation. Usually kon stands for the rate constant with which the complex forms. A higher kon goes with faster complex formation.

Where “and” joins values, the source holds several entries; their conditions need not be identical. Identical values can stand only once. Ends that are not written are not given here. * marks the point of attachment. Biotin = O=C1N[C@H]2[C@H](CS[C@H]2CCCCC(=O)*)N1

B1: 14G11 monoclonal antibody (antibody, IgG1, V domains shown)
VH: QIQLVQSGPEMKKPGETVKIFCKASGYTLTDYSMHWVKQAPGKGLKWMGWINTETGEPTYADDFKGRCAFSLETSVSTAFLQINNLKNEDMGTYFCASSGAWFSYWGQGTLVTVSA
VL: DVLLTQTPLSLPVSLGDQASISCRSSQTIVQINGNTHLEWFLQKPGQSPKLLIYKVSNRFSGVPDRFSGSGSGTDFTLKISRVEAEDLGIYYCFQGSHVPFTFGSGTKLEIK
notes: also called 14G11 monoclonal Ab
Regarding B1, the binding result with peptide 43 (QQQQQQQQQQ) was “no binding”. The Kd with PWG-gliadin [1] is < 50 nM and ~30 nM; in the assay with PWG-gliadin [15], 30.6 nM. The OD450nm in assay [2], in [3], in assay [4], in assay [5], in assay [6] and in [7] was roughly 1 throughout. Besides, the OD450nm in [8] is roughly 1; in assay [9], roughly 1; in assay [10], roughly 1; in [11], roughly 1; in assay [12] it was less than 0.5; in [13] it was less than 0.5. The molecule also had an OD450nm in [14] of less than 0.5. For the same molecule, in the assay with PWG-gliadin [15], the koff was determined as 0.00225 s⁻¹. In addition, the kon with PWG-gliadin [15] was 73600 M⁻¹ s⁻¹.

B2: 13F6 monoclonal antibody (antibody, IgG2b, V domains shown)
VH: QIQLVQSGPELKKPGETVKISCKASGYTFTDYSMHWVRQAPGKGLKWMGWINTETGEPTYADDFKGRFAFSLETSASTAYLQINNLKNEDTATHFCAPSVAWFAYWGQGTLVTVST
VL: DVLMTQTPLSLSVSLGDQASISCRSSQSIVQSNGNTHLEWFLQKPGQSPKLLIYKVSNRFSGVPDRFSGSGSGTDFTLKISRVEAEDLGVYYCFQGSHVPFTFGSGTKLEIK
notes: also called 13F6 monoclonal Ab
In the case of B2, the binding result in the assay with peptide 43 (QQQQQQQQQQ) is “no binding”; in assay [16], “binds”; in assay [17] it was “binds”; in assay [18], “binds”. Also, the Kd was < 10 nM and 5 nM to 6 nM (2×) with PWG-gliadin [1]; 5.81 nM with PWG-gliadin [19]. In addition, the OD450nm in assay [2], in assay [3], in assay [4], in [5], in assay [6] and in [7] was roughly 2 throughout. For the same molecule, the OD450nm in [8], in assay [9], in assay [10] and in assay [11] was roughly 2 throughout. Besides, the off-rate (koff) in the assay with PWG-gliadin [19] turned out to be 0.000663 s⁻¹. Also, the kon in the assay with PWG-gliadin [19] worked out at 114000 M⁻¹ s⁻¹.
